Experimental data as given in FireProtDB (doi:10.1021/bi00252a018).

Conditions: Streptomyces albogriseolus, Thermal, DSC, reversible: yes (70-85%), whole UniProt chain shown

B1: Subtilisin inhibitor wild type, P01006 (protein)
chain: MRNTGAGPSPSVSRPPPSAAPLSGAALAAPGDAPSALYAPSALVLTVGKGVSATTAAPERAVTLTCAPGPSGTHPAAGSACADLAAVGGDLNALTRGEDVMCPMVYDPVLLTVDGVWQGKRVSYERVFSNECEMNAHGSSVFAF
- Tm (pH 2.9, glycine 25 mM): 44.5 °C
- Tm (pH 2.94, glycine 25 mM): 43.9 °C
- Tm (pH 2.98, glycine 25 mM): 45.4 °C
- Tm (pH 3.03, glycine 25 mM): 47.8 °C
- Tm (pH 3.04, glycine 25 mM): 47.6 °C
- Tm (pH 3.07, glycine 25 mM): 48.8 °C
- Tm (pH 3.12, glycine 25 mM): 50.5 °C
- Tm (pH 3.15, glycine 25 mM): 51.3 °C
- Tm (pH 3.16, glycine 25 mM): 52.2 °C
- Tm (pH 3.2, glycine 25 mM): 53.6 °C
- Tm (pH 3.21, glycine 25 mM): 53.4 °C
- Tm (pH 3.24, glycine 25 mM): 54.3 °C
- Tm (pH 3.25, glycine 25 mM): 55.7 °C
- Tm (pH 7, phosphate 25 mM): 82 °C
- Tm (pH 9.2, glycine 25 mM): 80.1 °C
- Tm (pH 9.75, glycine 25 mM): 80.2 °C
